The text below walks through data of PMC5520057, “Modulation of nongenomic activation of PI3K signalling by tetramerization of N-terminally-cleaved RXRα” (Nature Communications, 2017).

First the molecules themselves.
B1: His-RXRα-LBD [human] / itself (parent)
chain: TSSANEDMPVERILEAELAVEPKTETYVEANMGLNPSSPNDPVTNICQAADKQLFTLVEWAKRIPHFSELPLDDQVILLRAGWNELLIASFSHRSIAVKDGILLATGLHVHRNSAHSAGVGAIFDRVLTELVSKMRDMQMDKTELGCLRAIVLFNPDSKGLSNPAEVEALREKVYASLEAYCKHKYPEQPGRFAKLLLRLPALRSIGLKCLEHLFFFKLIGDTPIDTFLMEMLEAPHQMT

Values joined by “and” are separate entries in the source; they are usually repeats but may differ in a detail not shown here. Equal entries are not always repeated.

This assay covers variants of B1. Kind of assay: non-denaturing polyacrylamide gel electrophoresis, densitometry. The settings on record: with itself.

chain 1 F217A: the screen value is 47% and 53% (DMSO (no K-80003, no 9-cis-RA)); 55% and 45% (K-80003).

Regarding chain 1 L211D, the screen value was 54% and 46% (DMSO (no K-80003, no 9-cis-RA)); 43% and 57% (K-80003); 59% and 41% (K-80003 + 9-cis-RA).

In the case of chain 1 Q53E, the screen value (DMSO (no K-80003, no 9-cis-RA)) is 53% and 47%; the screen value (K-80003) is 58% and 42%.
